Measurements: US20200102387A1 (CELGENE, published 2020)
Each block holds one binder with its values, some of them ahead of it.

Experiments:
[1] = target: T1, SIRPγ extracellular domain (human, UniProt Q9P1W8 29-360); experiment: SPR Biacore T200, antibody on Protein A chip, 1:1 Langmuir fit
T1 construct: also called hSIRPγ - ECD

[2] = target: T2, extracellular domain of SIRPα v1-DLN (e.g. SIRPα1) (human, UniProt P78324 31-373); experiment: as above
T2 construct: also called hSIRPα - ECD (v1)

[3] = target: T3, SIRPβ extracellular domain (human, UniProt O00241 30-371); experiment: as above
T3 construct: also called hSIRPβ - ECD
T3 chain: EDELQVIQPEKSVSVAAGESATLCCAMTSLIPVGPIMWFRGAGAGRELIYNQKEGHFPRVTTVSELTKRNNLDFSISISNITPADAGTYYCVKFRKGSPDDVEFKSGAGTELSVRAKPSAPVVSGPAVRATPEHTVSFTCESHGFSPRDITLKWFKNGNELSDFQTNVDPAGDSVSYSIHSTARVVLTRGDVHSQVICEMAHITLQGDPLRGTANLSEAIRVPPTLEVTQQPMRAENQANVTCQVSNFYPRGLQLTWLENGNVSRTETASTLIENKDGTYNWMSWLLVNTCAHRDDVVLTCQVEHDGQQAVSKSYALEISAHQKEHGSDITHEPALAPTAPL

[4] = target: T4, cynomolgus SIRPα on cells (cynomolgus, UniProt P78324 31-373 (human entry)); experiment: flow cytometry of cynomolgus whole blood, gated CD14+ cells, Donor 1
T4 construct: also called cyno SIRPα-CHO; Cyno SIRPα-CHO-K1; not shown: Transmembrane and cytoplasmic region of cynomolgus SIRPα
T4 chain: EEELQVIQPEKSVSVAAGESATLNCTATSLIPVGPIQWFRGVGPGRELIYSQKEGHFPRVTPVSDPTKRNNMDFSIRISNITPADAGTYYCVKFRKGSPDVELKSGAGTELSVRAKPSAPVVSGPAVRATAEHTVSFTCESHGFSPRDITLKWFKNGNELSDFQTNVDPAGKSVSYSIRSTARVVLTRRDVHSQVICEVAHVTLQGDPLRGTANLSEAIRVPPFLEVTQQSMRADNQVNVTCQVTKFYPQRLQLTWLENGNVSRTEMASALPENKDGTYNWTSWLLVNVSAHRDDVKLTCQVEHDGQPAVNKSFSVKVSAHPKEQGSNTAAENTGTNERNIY

[5] = target: T4, cynomolgus SIRPα on cells; experiment: flow cytometry of cynomolgus whole blood, gated CD14+ cells, Donor 2
FcγR2B = target: T5, FcγR2B (human, UniProt P31994 43-310); experiment: cell binding, FcγR-engineered HEK293 cells
T5 construct: whole, on cells
T5 sequence (looked up): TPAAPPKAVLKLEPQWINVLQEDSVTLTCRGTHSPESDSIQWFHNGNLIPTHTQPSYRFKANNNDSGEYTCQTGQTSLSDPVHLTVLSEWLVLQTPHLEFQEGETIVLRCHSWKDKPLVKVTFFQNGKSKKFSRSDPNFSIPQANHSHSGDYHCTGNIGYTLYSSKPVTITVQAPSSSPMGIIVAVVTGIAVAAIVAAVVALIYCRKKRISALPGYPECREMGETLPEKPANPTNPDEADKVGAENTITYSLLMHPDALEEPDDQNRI

FcγR1 (CD64) = target: T6, FcγR1 (CD64) (human, UniProt P12314 16-374); experiment: cell binding, FcγR-engineered HEK293 cells
T6 construct: whole, on cells

FcγR3A (CD16aV158) = target: T7, FcγR3A (CD16aV158) (human, UniProt P08637 17-254); experiment: cell binding, FcγR-engineered HEK293 cells
T7 construct: whole, on cells

[6] = target: T4, cynomolgus SIRPα on cells; experiment: flow cytometry, cyno whole blood, gated CD14+ population, PE-conjugated antibody, one of two donors
mouse SIRPα on cells [7] = target: T8, mouse SIRPα on cells (mouse, UniProt P97797 32-513); experiment: flow cytometry, C57BL/6-CD11b+ Cell Binding
T8 construct: whole, on cells; also called mouse SIRPα-CHO-K1; Ms SIRPα-CHO-K1
T8 sequence (looked up): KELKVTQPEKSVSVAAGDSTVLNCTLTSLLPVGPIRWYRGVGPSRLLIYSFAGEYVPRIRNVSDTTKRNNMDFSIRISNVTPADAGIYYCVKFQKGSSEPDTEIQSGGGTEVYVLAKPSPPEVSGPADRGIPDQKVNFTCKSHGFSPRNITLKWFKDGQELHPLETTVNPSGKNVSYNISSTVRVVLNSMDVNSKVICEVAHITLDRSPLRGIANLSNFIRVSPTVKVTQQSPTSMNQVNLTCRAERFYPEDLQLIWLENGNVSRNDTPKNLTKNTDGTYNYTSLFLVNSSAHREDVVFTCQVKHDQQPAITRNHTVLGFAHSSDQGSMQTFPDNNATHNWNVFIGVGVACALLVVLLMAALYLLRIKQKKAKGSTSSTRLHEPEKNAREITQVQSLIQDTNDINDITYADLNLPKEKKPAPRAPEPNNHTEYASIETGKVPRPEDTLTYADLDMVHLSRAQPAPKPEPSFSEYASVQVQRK

mouse SIRPα on cells [8] = target: T8, mouse SIRPα on cells; experiment: flow cytometry competition on C57/BL6 macrophages, competitor mCD47-hFc 6.7 nM, antibody at 0.5 nM or more
mouse SIRPα on cells [9] = target: T8, mouse SIRPα on cells; experiment: cell binding, Ms SIRPα-CHO-K1 cells, 100 nM antibody
NOD/SCID mouse SIRPα-Fc = target: T9, NOD/SCID mouse SIRPα-Fc (mouse (NOD/SCID)); experiment: BLI Octet, antigen-Fc on biosensor
T9 construct: a signal peptide may be part of the entry; also called NOD/SCID Ms SIRPα-Fc

mouse SIRPα-Fc = target: T10, mouse SIRPα-Fc (mouse); experiment: BLI Octet, antigen-Fc on biosensor
T10 construct: a signal peptide may be part of the entry; also called Ms; Ms SIRPα-Fc

mouse SIRPα on cells [10] = target: T8, mouse SIRPα on cells; experiment: flow cytometry, C57/BL6 macrophages, anti-human Fc detection; C57/BL6 macrophages (whole cells), not SIRPα-CHO-K1

T9 sequence (chain, as listed by the source limits assumed): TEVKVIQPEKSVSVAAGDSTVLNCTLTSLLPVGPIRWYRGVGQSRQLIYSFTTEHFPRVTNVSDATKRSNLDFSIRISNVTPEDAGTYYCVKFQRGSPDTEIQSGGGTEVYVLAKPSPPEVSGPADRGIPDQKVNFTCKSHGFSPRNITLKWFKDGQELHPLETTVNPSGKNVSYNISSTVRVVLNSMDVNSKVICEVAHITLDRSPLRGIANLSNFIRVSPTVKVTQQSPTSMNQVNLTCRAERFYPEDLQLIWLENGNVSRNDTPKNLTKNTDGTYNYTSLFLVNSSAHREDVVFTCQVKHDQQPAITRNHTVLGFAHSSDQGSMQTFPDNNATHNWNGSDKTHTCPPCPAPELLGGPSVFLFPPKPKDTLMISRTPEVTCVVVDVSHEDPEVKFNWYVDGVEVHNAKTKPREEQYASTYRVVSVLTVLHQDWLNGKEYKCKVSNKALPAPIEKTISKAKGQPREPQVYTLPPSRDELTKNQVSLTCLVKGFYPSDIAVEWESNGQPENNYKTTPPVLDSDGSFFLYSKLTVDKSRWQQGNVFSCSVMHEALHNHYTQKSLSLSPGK
T1 sequence (Q9P1W8 29-360 limits assumed): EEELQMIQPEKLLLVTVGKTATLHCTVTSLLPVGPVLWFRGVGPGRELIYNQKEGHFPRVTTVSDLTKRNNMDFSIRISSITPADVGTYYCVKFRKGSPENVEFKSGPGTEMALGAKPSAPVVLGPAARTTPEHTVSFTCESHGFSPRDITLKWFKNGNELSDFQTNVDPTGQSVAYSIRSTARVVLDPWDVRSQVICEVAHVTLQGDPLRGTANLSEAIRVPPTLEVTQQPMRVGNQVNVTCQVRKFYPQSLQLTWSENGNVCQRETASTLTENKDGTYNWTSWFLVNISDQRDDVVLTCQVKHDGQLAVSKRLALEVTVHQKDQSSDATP
T6 sequence (P12314 16-374): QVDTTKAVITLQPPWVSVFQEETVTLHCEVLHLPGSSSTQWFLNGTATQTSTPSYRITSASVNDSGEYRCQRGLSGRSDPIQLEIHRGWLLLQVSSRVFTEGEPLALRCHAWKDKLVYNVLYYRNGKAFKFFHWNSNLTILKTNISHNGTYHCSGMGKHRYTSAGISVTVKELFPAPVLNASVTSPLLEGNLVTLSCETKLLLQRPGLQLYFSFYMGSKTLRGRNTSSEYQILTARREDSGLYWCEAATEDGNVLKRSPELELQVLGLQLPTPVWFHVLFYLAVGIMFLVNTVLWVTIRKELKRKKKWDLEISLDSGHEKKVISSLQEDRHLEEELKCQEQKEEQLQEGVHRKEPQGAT
T7 sequence (P08637 17-254 F176V): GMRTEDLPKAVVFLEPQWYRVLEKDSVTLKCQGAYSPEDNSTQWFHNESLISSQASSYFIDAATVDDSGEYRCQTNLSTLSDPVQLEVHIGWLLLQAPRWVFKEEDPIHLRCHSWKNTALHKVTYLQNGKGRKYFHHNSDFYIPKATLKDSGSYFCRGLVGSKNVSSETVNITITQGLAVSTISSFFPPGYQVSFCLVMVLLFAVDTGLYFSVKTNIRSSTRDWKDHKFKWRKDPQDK

- Kd [1]: 1.47 nM
- Kd [2]: 3.65 nM
- Kd [3]: 2.98 nM
B1: … ANTIBODY (SIRPα reference antibody with light chain SEQ ID NO:224 and heavy chain SEQ ID NO:225) (antibody, human IgG1, kappa, V domains shown)
VH: EVQLQQSGAELVKPGASVKLSCTASGFNIKDYYIHWVQQRTEQGLEWIGRIDPEDGETKYAPKFQDKATITADTSSNTAYLHLSSLTSEDTAVYYCARWGAYWGQGTLVTVSA
VL: QIVLTQSPAIMSASPGEKVTLTCSASSSVSSSYLYWYQQKPGSSPKLWIYSTSNLASGVPARFSGSGSGTSYSLTISSMEAEDAASYFCHQWSSYPRTFGAGTKLELKR

- Kd [1]: 0.351 nM
- Kd [2]: 0.424 nM
- Kd [3]: 2.08 nM
B2: SIRPAB-12-K322A (antibody, human IgG1, kappa)
light: DIQMTQSPSSVSASVGDRVTITCRASQGISSWLAWYQQKPGKAPKLLIYAASNLQSGVPSRFSGSGSGTDFTLTISSLQPEDFATYYCQQGASFPITFGGGTKVEIKRTVAAPSVFIFPPSDEQLKSGTASVVCLLNNFYPREAKVQWKVDNALQSGNSQESVTEQDSKDSTYSLSSTLTLSKADYEKHKVYACEVTHQGLSSPVTKSFNRGEC
heavy: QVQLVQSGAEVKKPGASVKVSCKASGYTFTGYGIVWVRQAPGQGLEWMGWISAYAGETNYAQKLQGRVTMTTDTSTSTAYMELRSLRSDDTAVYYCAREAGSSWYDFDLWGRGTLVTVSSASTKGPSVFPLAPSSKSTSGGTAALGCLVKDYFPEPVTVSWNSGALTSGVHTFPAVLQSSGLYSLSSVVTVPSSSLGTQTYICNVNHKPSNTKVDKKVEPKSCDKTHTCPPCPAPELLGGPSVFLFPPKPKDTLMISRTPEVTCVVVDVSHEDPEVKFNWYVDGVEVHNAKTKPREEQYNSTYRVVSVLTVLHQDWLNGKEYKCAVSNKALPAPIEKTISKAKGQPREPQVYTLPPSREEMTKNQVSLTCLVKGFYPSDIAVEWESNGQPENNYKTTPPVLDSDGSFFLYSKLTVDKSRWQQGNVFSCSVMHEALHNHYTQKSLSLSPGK
notes: human IgG1 with K322A

- EC50 [4]: 0.426 nM
- EC50 [5]: 0.39 nM
- EC50 (FcγR2B): 5180 nM
- EC50 (FcγR1 (CD64)): 756 nM
- EC50 (FcγR3A (CD16aV158)): 2060 nM
- EC50 [6]: 0.43 nM
B3: SIRPAB-11-4PE (antibody, human IgG4 S228P, kappa)
light: B2 light
heavy: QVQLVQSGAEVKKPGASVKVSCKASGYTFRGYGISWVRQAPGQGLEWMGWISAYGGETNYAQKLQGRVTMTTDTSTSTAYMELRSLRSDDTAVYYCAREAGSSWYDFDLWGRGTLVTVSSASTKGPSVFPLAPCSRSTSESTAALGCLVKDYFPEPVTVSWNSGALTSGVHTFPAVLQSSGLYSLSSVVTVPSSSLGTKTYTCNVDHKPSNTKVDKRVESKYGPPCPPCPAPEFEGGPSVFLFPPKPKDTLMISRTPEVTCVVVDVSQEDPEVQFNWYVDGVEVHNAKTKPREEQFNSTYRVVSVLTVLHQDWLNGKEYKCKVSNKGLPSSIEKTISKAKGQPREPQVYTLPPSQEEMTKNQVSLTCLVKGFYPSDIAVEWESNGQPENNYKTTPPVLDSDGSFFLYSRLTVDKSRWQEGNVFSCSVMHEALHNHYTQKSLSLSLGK
notes: human IgG4 with S228P and L235E; also called SIRPAB-11-IgG4PE; SIRPAB-11-IgG4PE-AF647

- EC50 (read off the curve) (mouse SIRPα on cells [7]): ~0.3 nM
- percent of mCD47 binding blocked (mouse SIRPα on cells [8]): > 90%
B4: SIRPAB-21 with mouse IgG2a (antibody, V domains shown)
VH: QVQLQESGPGLVKPSQTLSLTCTVSGGSISSGGYYWSWIRQHPGKGLEWIGAIYYSGPIYYNPSLKSRVTISVDTSKNQFSLKLSSVTAADTAVYYCSKEGYHSGMDVWGQGTTVTVSS
VL: DIQMTQSPSSLSASVGDRVTITCQASDDISDYLNWYQQKPGKAPKLLIYDASNLETGVPSRFSGSGSGTDFTFTISSLQPEDIATYYCQQFAYLPWTFGGGTKVEIK

- fold increase over background (100 nM) (mouse SIRPα on cells [9]): 2440 fold
- Kd (NOD/SCID mouse SIRPα-Fc): 5.43 nM
- koff (NOD/SCID mouse SIRPα-Fc): 0.0019 s⁻¹
- kon (NOD/SCID mouse SIRPα-Fc): 350000 M⁻¹ s⁻¹
- Kd (mouse SIRPα-Fc): 1.46 nM
- koff (mouse SIRPα-Fc): 0.000708 s⁻¹
- kon (mouse SIRPα-Fc): 490000 M⁻¹ s⁻¹
B5: SIRPAB-21 (antibody, human IgG1, kappa, V domains shown)
VH: B4 VH
VL: DIQMTQSPSSLSASVGDRVTITCQASDDISDYLNWYQQKPGKAPKLLIYDASNLETGVPSRFSGSGSGTDFTFTISSLQPEDIATYYCQQFAYLPWTFGGGTKVEIKR

- EC50 (mouse SIRPα on cells [10]): 6.7 nM
B6: mCD47-hFc (Fc fusion, mouse, UniProt Q61735 19-140, looked up, not shown: a dimerising Fc or GST)
chain: QLLFSNVNSIEFTSCNETVVIPCIVRNVEAQSTEEMFVKWKLNKSYIFIYDGNKNSTTTDQNFTSAKISVSDLINGIASLKMDKRDAMVGNYTCEVTELSREGKTVIELKNRTVSWFSPNEK
notes: also called recombinant mouse CD47
